In patent US10246495B2, “Variants of Gal2 transporter and their uses” (BUTALCO GMBH, priority 2014, dated 2019):
Substitutions are numbered along the chain they refer to. Names may count otherwise. “Also recorded” adds a separate entry of the source.

B1: V71I: Gal2 of CEN.PK with amino acid exchange V71I alone (protein, UniProt P13181 1-574, looked up, variant V71I)
Galactose transporter: MAVEENNMPVVSQQPQAGEDVISSLSKDSHLSAQSQKYSNDELKAGESGSEGSQSVPIEIPKKPMSEYVTISLLCLCVAFGGFMFGWDTGTISGFVVQTDFLRRFGMKHKDGTHYLSNVRTGLIVAIFNIGCAFGGIILSKGGDMYGRKKGLSIVVSVYIVGIIIQIASINKWYQYFIGRIISGLGVGGIAVLCPMLISEIAPKHLRGTLVSCYQLMITAGIFLGYCTNYGTKSYSNSVQWRVPLGLCFAWSLFMIGALTLVPESPRYLCEVNKVEDAKRSIAKSNKVSPEDPAVQAELDLIMAGIEAEKLAGNASWGELFSTKTKVFQRLLMGVFVQMFQQLTGNNYFFYYGTVIFKSVGLDDSFETSIVIGVVNFASTFFSLWTVENLGHRKCLLLGAATMMACMVIYASVGVTRLYPHGKSQPSSKGAGNCMIVFTCFYIFCYATTWAPVAWVITAESFPLRVKSKCMALASASNWVWGFLIAFFTPFITSAINFYYGYVFMGCLVAMFFYVFFFVPETKGLSLEEIQELWEEGVLPWKSEGWIPSSRRGNNYDLEDLQHDDKPWYKAMLE
B2: T354A: Gal2 of CEN.PK with amino acid exchange T354A alone (protein, listed as Saccharomyces cerevisiae)
chain: B1 Galactose transporter with S50P, I71V, R280L, T354A, H392R
B3: V71I and T354A: Gal2 of CEN.PK with amino acid exchanges T354A and V71I (protein, UniProt P13181 1-574, looked up, variant V71I T354A)
Galactose transporter: B1 Galactose transporter with T354A

How the values were obtained:
[1] = target: Gal2 (Saccharomyces cerevisiae, UniProt P13181); conditions: galactose transport by Gal2; cited from earlier work
Chain of Gal2 (P13181 whole entry): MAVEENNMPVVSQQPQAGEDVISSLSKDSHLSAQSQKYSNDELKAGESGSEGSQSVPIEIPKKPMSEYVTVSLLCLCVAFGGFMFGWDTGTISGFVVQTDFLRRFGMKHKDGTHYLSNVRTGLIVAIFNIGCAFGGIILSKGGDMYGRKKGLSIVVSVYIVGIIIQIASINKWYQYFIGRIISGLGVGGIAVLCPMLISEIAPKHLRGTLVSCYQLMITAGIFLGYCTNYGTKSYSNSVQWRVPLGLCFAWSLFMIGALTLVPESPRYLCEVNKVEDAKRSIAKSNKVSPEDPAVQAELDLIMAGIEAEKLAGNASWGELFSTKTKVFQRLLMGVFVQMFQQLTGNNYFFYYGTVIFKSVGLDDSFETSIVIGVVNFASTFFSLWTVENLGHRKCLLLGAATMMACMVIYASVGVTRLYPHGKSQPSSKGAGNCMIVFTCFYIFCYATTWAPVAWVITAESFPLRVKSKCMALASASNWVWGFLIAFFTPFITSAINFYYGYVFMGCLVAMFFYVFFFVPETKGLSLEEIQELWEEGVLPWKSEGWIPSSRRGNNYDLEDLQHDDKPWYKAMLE

[2] = test system: EBY.VW4000; test: Serial dilution growth drop test of Gal2 variants in EBY.VW4000 on hexoses; assay type: cell-based, Saccharomyces cerevisiae; conditions: FIG. 3, four days at 30°; for growth on glucose: Gal2 of CEN.PK constructs
Protocol: The transformants were cultivated in 5 ml SCM-ura with 20 g/l maltose at 300, washed with water and adjusted to an OD600 of 1. Thereof it followed a serial dilution. 5 μl were dropped onto the respective media and it was incubated for […] at 30°. As a control for the dilution SCM-ura with 20 g/l maltose was taken. The cells of the mutated transporters were dropped onto SCD-ura with 0.2% and 2% glucose, as well as SCG-ura with 0.2% and 2% D-galactose to test their functionality. Furthermore the wild type of CEN.PK2 and Ethanol Red, as well as Gal2_ep3.1 were used for comparison. The galactose transporter with the mutation T354A is from HDY.GUF10.
FIG. 3: Drop test of Gal2_T354A in combination with V71I and L280R in EBY.VW4000 after four days at 30°. Several dilutions were dropped from left to right (undiluted, 1:10, 1:100, 1:1000).
(§1) For easy comparison of growth of different S. cerevisiae strains under various growth conditions a serial dilution spot assay was performed. Cells were grown in liquid culture to exponential phase in appropriate medium, collected by centrifugation (2000×g, 2 min), washed twice with sterile water and then resuspended to an OD600 of 1.0 in selective medium without carbon source. From this cell suspension a ten-fold serial dilution was prepared in selective medium (four dilution steps). 6 μl of each cell suspension were spotted on plates of the media to be examined and allowed to dry. Plates were incubated at 30° C.
First a growth test was performed with the vectors in VW4000 on glucose and maltose media. The galactose transporter of the wild type CEN.PK2, as well as Gal2_ep3.1 were used as controls and as a comparison.
The following variants of Gal2 were constructed in expression vectors: T354A, T354A+V71I, T354A+L280R, L280R and […]. They were transformed into competent EBY.VW4000 cells. Then drop tests were performed on different carbon sources.

[3] = test system: AFY10; test: Serial dilution growth drop test of Gal2 variants in AFY10 on xylose and xylose-glucose mixtures; assay type: cell-based, Saccharomyces cerevisiae; conditions: FIG. 4; 2 g/l xylose, six days at 30°
Protocol: The transformants were cultivated in 5 ml SCE-ura-leu with 2% ethanol at 300, washed with water and adjusted to an OD600 of 1. Thereof it followed a serial dilution. 5 μl were dropped onto the respective media and it was incubated for […] at 30°. As a control for the dilution SCE-ura-leu with 2% ethanol was taken. The cells of the mutated transporters were dropped onto SCX-ura-leu with 0.2% and 2% D-xylose, as well as SC-ura-leu with 1% D-xylose with 4% D-glucose and SC-ura-leu with 0.2% D-xylose and 2% D-glucose to test their functionality. Furthermore the wild type of CEN.PK2 and Ethanol Red, as well as Gal2_ep3.1 were used for comparison. The galactose transporter with the mutation T354A is from HDY.GUF10.
FIG. 4: Drop test of Gal2_T354A in combination with V71I and L280R in AFY10 after six days at 30°. Several dilutions were dropped from left to right (undiluted, 1:10, 1:100, 1:1000).
as §1
Furthermore this was also done with AFY10 in order to investigate the xylose specificity and the glucose affinity of the transformants.
The various constructs were transformed into AFY10 cells together with vector YEp181_pHXT7-optXI_Clos, and serial dilution growth drop tests were performed.

Molecule	Km [1]	effect on uptake of glucose or galactose [2]	growth on low xylose concentrations [3]	growth on glucose [2]
O=C[C@H](O)[C@@H](O)[C@@H](O)[C@H](O)CO [galactose]	1000 to 5000 µM	–	–	–
B1	–	no effect	very slow growth; also recorded: poor growth	–
B2	–	–	poor growth	strongly impairs growth
B3	–	–	growth like the Gal2 wild type	does not mediate growth
